# Values of other authors as cited in publication PMC7468149.
# Assays:
# VEGFR2 (Homo sapiens) = VEGFR2 (Homo sapiens) (UniProt P35968); experiment: SPR
# VEGFR1 (Homo sapiens) = VEGFR1 (Homo sapiens) (UniProt P17948); experiment: SPR
# Sequence of UniProt P17948 (P17948 27-1338): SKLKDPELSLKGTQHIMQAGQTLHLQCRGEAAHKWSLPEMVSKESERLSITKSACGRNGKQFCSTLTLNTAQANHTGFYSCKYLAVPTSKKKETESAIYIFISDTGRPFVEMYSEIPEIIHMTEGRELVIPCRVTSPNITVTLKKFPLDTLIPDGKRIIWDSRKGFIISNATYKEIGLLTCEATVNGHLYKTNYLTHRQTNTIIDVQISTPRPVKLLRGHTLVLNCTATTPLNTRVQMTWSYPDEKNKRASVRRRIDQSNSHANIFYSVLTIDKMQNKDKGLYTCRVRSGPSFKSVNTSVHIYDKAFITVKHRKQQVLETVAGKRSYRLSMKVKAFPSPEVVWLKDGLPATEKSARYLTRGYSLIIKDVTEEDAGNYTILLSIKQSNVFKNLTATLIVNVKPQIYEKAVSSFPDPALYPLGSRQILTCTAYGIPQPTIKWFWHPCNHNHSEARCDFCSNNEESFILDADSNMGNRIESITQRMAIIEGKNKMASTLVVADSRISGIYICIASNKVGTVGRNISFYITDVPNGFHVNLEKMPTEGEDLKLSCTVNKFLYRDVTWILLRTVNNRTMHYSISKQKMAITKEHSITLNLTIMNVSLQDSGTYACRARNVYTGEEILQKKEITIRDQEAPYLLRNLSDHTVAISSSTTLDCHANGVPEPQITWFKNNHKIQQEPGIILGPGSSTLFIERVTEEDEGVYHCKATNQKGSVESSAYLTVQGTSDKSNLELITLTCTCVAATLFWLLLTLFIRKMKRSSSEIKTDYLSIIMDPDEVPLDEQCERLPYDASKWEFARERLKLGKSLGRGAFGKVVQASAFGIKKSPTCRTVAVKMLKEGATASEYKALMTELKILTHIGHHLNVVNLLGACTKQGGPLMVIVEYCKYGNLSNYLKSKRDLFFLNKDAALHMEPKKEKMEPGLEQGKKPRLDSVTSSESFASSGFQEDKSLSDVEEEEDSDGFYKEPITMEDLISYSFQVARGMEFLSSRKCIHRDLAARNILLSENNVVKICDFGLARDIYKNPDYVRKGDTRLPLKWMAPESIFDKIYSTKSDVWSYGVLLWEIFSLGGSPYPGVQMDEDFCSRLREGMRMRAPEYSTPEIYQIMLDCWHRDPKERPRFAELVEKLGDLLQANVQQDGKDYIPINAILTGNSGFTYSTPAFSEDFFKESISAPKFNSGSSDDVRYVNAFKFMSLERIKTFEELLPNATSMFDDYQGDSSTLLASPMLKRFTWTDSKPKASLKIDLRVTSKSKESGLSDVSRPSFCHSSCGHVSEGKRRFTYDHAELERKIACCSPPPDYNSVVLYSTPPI
# Sequence of UniProt P35968 (P35968 20-1356): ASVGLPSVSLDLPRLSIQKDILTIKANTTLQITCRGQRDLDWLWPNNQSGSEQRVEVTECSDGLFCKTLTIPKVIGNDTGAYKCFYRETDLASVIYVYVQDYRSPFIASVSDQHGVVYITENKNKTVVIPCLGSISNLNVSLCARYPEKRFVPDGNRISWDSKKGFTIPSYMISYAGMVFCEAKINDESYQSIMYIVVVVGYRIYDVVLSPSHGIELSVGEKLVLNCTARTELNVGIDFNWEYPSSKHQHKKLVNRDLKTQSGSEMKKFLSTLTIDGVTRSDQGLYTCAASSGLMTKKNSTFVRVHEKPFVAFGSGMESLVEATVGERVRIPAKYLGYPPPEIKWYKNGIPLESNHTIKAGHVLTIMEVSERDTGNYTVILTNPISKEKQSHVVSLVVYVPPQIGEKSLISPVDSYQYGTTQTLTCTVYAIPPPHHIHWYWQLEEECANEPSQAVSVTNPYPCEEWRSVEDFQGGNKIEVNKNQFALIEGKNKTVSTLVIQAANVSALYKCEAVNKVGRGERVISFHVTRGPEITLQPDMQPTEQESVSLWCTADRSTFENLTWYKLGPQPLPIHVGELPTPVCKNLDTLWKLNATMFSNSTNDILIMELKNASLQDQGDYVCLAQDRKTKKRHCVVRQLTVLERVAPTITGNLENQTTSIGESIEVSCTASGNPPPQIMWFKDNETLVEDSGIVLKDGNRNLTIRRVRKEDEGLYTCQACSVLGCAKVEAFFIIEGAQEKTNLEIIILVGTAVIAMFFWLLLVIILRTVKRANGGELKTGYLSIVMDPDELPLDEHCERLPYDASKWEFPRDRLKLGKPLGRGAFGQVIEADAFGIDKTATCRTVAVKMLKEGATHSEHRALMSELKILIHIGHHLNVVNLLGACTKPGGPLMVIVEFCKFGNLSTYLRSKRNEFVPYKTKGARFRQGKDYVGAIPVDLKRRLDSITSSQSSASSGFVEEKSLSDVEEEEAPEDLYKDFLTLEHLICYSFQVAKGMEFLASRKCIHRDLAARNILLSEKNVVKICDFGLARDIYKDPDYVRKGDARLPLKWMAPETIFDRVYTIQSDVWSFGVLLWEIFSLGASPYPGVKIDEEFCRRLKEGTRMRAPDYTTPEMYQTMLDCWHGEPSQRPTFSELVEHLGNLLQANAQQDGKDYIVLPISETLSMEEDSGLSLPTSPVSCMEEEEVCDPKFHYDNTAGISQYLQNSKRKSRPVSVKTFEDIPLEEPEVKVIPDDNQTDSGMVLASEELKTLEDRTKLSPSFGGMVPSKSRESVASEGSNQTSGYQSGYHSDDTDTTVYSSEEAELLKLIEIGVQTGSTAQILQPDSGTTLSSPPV
substance,measurement,setting,value
VEGF-A165a (from UniProt P15692),Kd,VEGFR2 (Homo sapiens),0.052 nM
same,Kd,VEGFR1 (Homo sapiens),0.0075 nM
